From US20060193821, “Aptamers to the human IL-12 cytokine family and their use as autoimmune disease therapeutics” (published 2006)

B1: AMX86-B5 (ssRNA)
RNA: GGGAAAAGCGAAUCAUACACAAGAUUAGUGCGUGUGUUGAAAGGGCUCAUAAUGUCAGUAUCGAGCUCCGCCAGAGACCAACCGAGAA
modifications: 2'-F C,U
B2: ARC1470 (mixed)
RNA: GGCAAGUAAUUGGGGAGUGCGGGCGGGG
modifications: deoxy A,G; 2'-OMe C,U; six PS; 3'-idT [2'-OMe C,U at 3,7,10,11,18,20,24; deoxy A,G elsewhere; PS 8-9,16-17,17-18,18-19,19-20,23-24 (N = PS linkage, left out); 3'-inverted dT at 29]
B3: ARC1621 (mixed)
RNA: ACAGGCAAGUAAUUGGGGAGUGCGGGCGGGGUGU
modifications: 2'-OMe C,U and G16,G17,G24,G25,G30,G31; other A,G deoxy; PS 3-4,4-5; 3'-idT [PS 3-4,4-5; 2'-OMe at 2,6,10,13,14,16,17,21,23,24,25,27,30,31,32,34; other A,G deoxy; 3'-inverted dT at 35]
B4: ARC1457 (mixed)
RNA: B3 RNA
modifications: deoxy A,G; 2'-OMe C,U; PS 16-17; 3'-idT [PS linkage 16-17; 2'-OMe C,U at 2,6,10,13,14,21,23,27,32,34; all A,G 2'-deoxy; 3'-inverted dT at 35]
B5: ARC1463 (mixed)
RNA: B3 RNA
modifications: deoxy A,G; 2'-OMe C,U; PS 30-31; 3'-idT [2'-OMe C,U at 2,6,10,13,14,21,23,27,32,34; deoxy A,G elsewhere; PS 30-31 (N = PS linkage, left out); 3'-inverted dT at 35]
B6: ARC1456 (mixed)
RNA: B3 RNA
modifications: deoxy A,G; 2'-OMe C,U; PS 15-16; 3'-idT [PS linkage 15-16; 2'-OMe C,U at 2,6,10,13,14,21,23,27,32,34; all A,G 2'-deoxy; 3'-inverted dT at 35]
B7: ARC1460 (mixed)
RNA: B3 RNA
modifications: deoxy A,G; 2'-OMe C,U; PS 24-25; 3'-idT [PS linkage 24-25; 2'-OMe C,U at 2,6,10,13,14,21,23,27,32,34; all A,G 2'-deoxy; 3'-inverted dT at 35]
B8: ARC1465 (mixed)
RNA: B3 RNA
modifications: deoxy A,G; 2'-OMe C,U; PS 11-12,19-20,20-21,21-22,22-23,26-27; 3'-idT [2'-OMe C,U at 2,6,10,13,14,21,23,27,32,34; deoxy A,G elsewhere; PS 11-12,19-20,20-21,21-22,22-23,26-27 (N = PS linkage, left out); 3'-inverted dT at 35]
B9: ARC1464 (mixed)
RNA: B3 RNA
modifications: deoxy A,G; 2'-OMe C,U; PS 31-32; 3'-idT [2'-OMe C,U at 2,6,10,13,14,21,23,27,32,34; deoxy A,G elsewhere; PS 31-32 (N = PS linkage, left out); 3'-inverted dT at 35]
B10: ARC1455 (mixed)
RNA: B3 RNA
modifications: deoxy A,G; 2'-OMe C,U; PS 5-6; 3'-idT [PS linkage 5-6; 2'-OMe C,U at 2,6,10,13,14,21,23,27,32,34; all A,G 2'-deoxy; 3'-inverted dT at 35]
B11: ARC1454 (mixed)
RNA: B3 RNA
modifications: deoxy A,G; 2'-OMe C,U; PS 4-5; 3'-idT [PS linkage 4-5; 2'-OMe C,U at 2,6,10,13,14,21,23,27,32,34; all A,G 2'-deoxy; 3'-inverted dT at 35]
B12: ARC1459 (mixed)
RNA: B3 RNA
modifications: deoxy A,G; 2'-OMe C,U; PS 23-24; 3'-idT [PS linkage 23-24; 2'-OMe C,U at 2,6,10,13,14,21,23,27,32,34; all A,G 2'-deoxy; 3'-inverted dT at 35]
B13: ARC1453 (mixed)
RNA: B3 RNA
modifications: deoxy A,G; 2'-OMe C,U; PS 3-4; 3'-idT [PS linkage 3-4; 2'-OMe C,U at 2,6,10,13,14,21,23,27,32,34; all A,G 2'-deoxy; 3'-inverted dT at 35]
B14: ARC1462 (mixed)
RNA: B3 RNA
modifications: deoxy A,G; 2'-OMe C,U; PS 29-30; 3'-idT [2'-OMe C,U at 2,6,10,13,14,21,23,27,32,34; deoxy A,G elsewhere; PS 29-30 (N = PS linkage, left out); 3'-inverted dT at 35]
B15: ARC1458 (mixed)
RNA: B3 RNA
modifications: deoxy A,G; 2'-OMe C,U; PS 17-18; 3'-idT [PS linkage 17-18; 2'-OMe C,U at 2,6,10,13,14,21,23,27,32,34; all A,G 2'-deoxy; 3'-inverted dT at 35]
B16: ARC1461 (mixed)
RNA: B3 RNA
modifications: deoxy A,G; 2'-OMe C,U; PS 25-26; 3'-idT [PS linkage 25-26; 2'-OMe C,U at 2,6,10,13,14,21,23,27,32,34; all A,G 2'-deoxy; 3'-inverted dT at 35]
B17: ARC1543 (mixed)
RNA: B3 RNA
modifications: 2'-OMe C,U and A1,A8,G9,A11,G18,A19,G20,G22,G26,G28,G29,G33; other A,G deoxy; 3'-idT
B18: ARC1471 (mixed)
RNA: GGCAAGUAAUUGGGGAGUGCGGGCGGGG
modifications: 2'-OMe C,U and three purines (A7,A8,G15 of ARC979); six PS; 3'-idT [2'-OMe C,U at 3,7,10,11,18,20,24; 2'-OMe purines A4,A5,G12; deoxy A,G elsewhere; PS 8-9,16-17,17-18,18-19,19-20,23-24 (N = PS linkage, left out); 3'-inverted dT at 29]

Each binder was assayed against IL-12 (human, p35/p40 heterodimer) (Homo sapiens, UniProt P29459;P29460 SEQ:57-253,SEQ:23-328) (assay: filter; no significant binding). Conditions: not given.
Chain of IL-12 (human, p35/p40 heterodimer) (P29459 23-219, chain 1 of 2): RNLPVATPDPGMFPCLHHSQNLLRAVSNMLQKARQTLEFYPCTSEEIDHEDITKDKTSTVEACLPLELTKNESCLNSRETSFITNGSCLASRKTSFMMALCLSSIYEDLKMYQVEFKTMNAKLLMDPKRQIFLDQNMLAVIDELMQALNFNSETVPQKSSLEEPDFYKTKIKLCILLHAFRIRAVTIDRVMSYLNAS
Chain of IL-12 (human, p35/p40 heterodimer) (P29460 23-328, chain 2 of 2): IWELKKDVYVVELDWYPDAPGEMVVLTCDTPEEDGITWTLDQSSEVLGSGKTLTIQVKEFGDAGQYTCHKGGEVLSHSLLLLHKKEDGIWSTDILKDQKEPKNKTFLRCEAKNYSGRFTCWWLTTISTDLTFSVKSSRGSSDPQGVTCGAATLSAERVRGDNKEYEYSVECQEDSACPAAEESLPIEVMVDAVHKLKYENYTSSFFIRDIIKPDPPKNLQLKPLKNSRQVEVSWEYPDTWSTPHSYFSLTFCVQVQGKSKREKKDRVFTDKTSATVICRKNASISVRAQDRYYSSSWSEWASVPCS

Binder	binding result
B1	no binding

Each binder was assayed against T1, IL-23 (human, p19/p40 heterodimer) (Homo sapiens, UniProt Q9NPF7;P29460 SEQ:20-189,SEQ:23-328) (assay: filter; SHMCK, tRNA). Conditions: tags: R&D Systems, carrier free.
Protocol: Monitoring Progress of rRfY Selection. Dot blot binding assays were performed throughout the selections to monitor the protein binding affinity of the pools. Trace ³²P-labeled RNA was combined with a dilution series of h-IL-23 and incubated at room temperature for 30 minutes in 1×SHMCK (20 mM Hepes, 120 mM NaCl, 5 mM KCl, 1 mM MgCl₂, 1 mM CaCl₂, pH 7.4) plus 0.1 mg/mL tRNA for a final volume of 20 μL. The binding reactions were analyzed by nitrocellulose filtration using a Minifold I dot-blot, 96-well vacuum filtration manifold (Schleicher & Schuell, Keene, N.H.). A three-layer filtration medium was used, consisting (from top to bottom) of Protran nitrocellulose (Schleicher & Schuell), Hybond-P nylon (Amersham Biosciences) and GB002 gel blot paper (Schleicher & Schuell). RNA that is bound to protein is captured on the nitrocellulose filter, whereas the non-protein bound RNA is captured on the nylon filter. The gel blot paper was included simply as a supporting medium for the other filters. Following filtration, the filter layers were separated, dried and exposed on a phosphor screen (Amersham Biosciences, Piscataway, N.J.) and quantified using a Storm 860 Phosphorimager® blot imaging system (Amersham Biosciences).
When a significant positive ratio of binding of RNA in the presence of h-IL-23 versus in the absence of h-IL-23 was seen, the pools were cloned using a TOPO TA cloning kit (Invitrogen, Carlsbad, Calif.) according to the manufacturer's instructions. For the h-IL-23 and X-IL-23 selections, the Round 8 pool templates were cloned, and 32 individual clones from each selections were assayed in a 1-point dot blot screen (+/−75 nM h-IL-23, as well as a separate screen at +/−75 nM h-IL-12). For the PN-IL-23 selection, the Round 10 pool was cloned and sequenced, and 8 unique clones were assayed for protein binding in a 1-point dot blot screen (+/−200 nM h-IL-23 and a separate screen at +/−200 nM h-IL-12). Subsequently, the Round 10 PN-IL-23 pool was re-cloned for further sequences, as well as the R12 PN-IL-23 pool, and the clones were assayed for protein binding in a 1 point do blot screen (+/−100 nM h-IL-23 or +/−200 nM h-IL-12).

T1 sequence (Q9NPF7 20-189, chain 1 of 2): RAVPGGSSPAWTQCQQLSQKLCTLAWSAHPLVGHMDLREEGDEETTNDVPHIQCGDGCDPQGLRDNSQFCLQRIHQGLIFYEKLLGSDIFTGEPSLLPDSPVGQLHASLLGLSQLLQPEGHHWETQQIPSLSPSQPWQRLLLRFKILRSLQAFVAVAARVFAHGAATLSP
T1 sequence (P29460 23-328, chain 2 of 2): as the sequence (P29460 23-328, chain 2 of 2) above

Binder	Kd
B1	196 nM

These binders were tested against T1, IL-23 (human, p19/p40 heterodimer) (assay: filter; DPBS Ca Mg). Conditions: tags: R&D Systems, carrier free.
Protocol: The dot blot binding assay previously described was used to characterize the relative potency of the majority of the aptamers synthesized. For KD determination, chemically synthesized aptamers were purified using denaturing polyacrylamide gel electrophoresis, 5′end labeled with γ-³²P ATP and were tested for direct binding to full human IL-23. An 8 point protein titration was used in the dot blot binding assay (either {100 nM, 30 nM, 10 nM, 3 nM, 1 nM, 300 pM, 100 pM, 0 pM} or {10 nM, 3 nM, 1 nM, 300 pM, 100 pM, 30 pM, 10 pM, 0 pM}) in Dulbecco's PBS (with Mg⁺⁺ and Ca⁺⁺) with 0.1 mg/mL BSA. KD values were calculated by fitting the equation y=(max/(1+K/protein))+yint using KaleidaGraph (KaleidaGraph v. 3.51, Synergy Software). Sequences of the ARC979 derivatives synthesized, purified and assayed for binding to IL-23 as well as the results of the protein binding characterization are tabulated below in Tables 29 and 30.

Binder	Kd
B2	8.6 nM
B3	0.5 nM
ACAGGCAAGUAAUUGGGGAGUGCGGGCGGGGUGU (mixed, 2'-OMe C,U and G26,G28,G29; other A,G deoxy; 3'-idT) [ARC1542]	1.2 nM
ACAGGCAAGUAAUUGGGGAGUGCGGGCGGGGUGU (mixed, 2'-OMe C,U and G31; other A,G deoxy; 3'-idT) [ARC1449]	2.6 nM
ACAGGCAAGUAAUUGGGGAGUGCGGGCGGGGUGU (mixed, 2'-OMe C,U and A12; other A,G deoxy; 3'-idT) [ARC1435]	9.8 nM
ACAGGCAAGUAAUUGGGGAGUGCGGGCGGGGUGU (mixed, 2'-OMe C,U and A8,G9,A11; other A,G deoxy; 3'-idT) [ARC1540]	7.5 nM
ACAGGCAAGUAAUUGGGGAGUGCGGGCGGGGUGU (mixed, 2'-OMe C,U and G9; other A,G deoxy; 3'-idT) [ARC1433]	2.8 nM
ACAGGCAAGUAAUUGGGGAGUGCGGGCGGGGUGU (mixed, 2'-OMe C,U and A11; other A,G deoxy; 3'-idT) [ARC1434]	3 nM
B4	3 nM
B5	3.6 nM
ACAGGCAAGUAAUUGGGGAGUGCGGGCGGGGUGU (mixed, 2'-OMe C,U and G18; other A,G deoxy; 3'-idT) [ARC1439]	4.8 nM
B6	3.2 nM
B7	5.8 nM
ACAGGCAAGUAAUUGGGGAGUGCGGGCGGGGUGU (mixed, 2'-OMe C,U and G5; other A,G deoxy; 3'-idT) [ARC1430]	14.2 nM
B8	1.3 nM
ACAGGCAAGUAAUUGGGGAGUGCGGGCGGGGUGU (mixed, 2'-OMe C,U and G24; other A,G deoxy; 3'-idT) [ARC1443]	2 nM
B9	2.4 nM
ACAGGCAAGUAAUUGGGGAGUGCGGGCGGGGUGU (mixed, 2'-OMe C,U and G28; other A,G deoxy; 3'-idT) [ARC1446]	2.1 nM
ACAGGCAAGUAAUUGGGGAGUGCGGGCGGGGUGU (mixed, 2'-OMe C,U and A1; other A,G deoxy; 3'-idT) [ARC1427]	3 nM
B10	1.6 nM
ACAGGCAAGUAAUUGGGGAGUGCGGGCGGGGUGU (mixed, 2'-OMe C,U and G22; other A,G deoxy; 3'-idT) [ARC1442]	2.8 nM
ACAGGCAAGUAAUUGGGGAGUGCGGGCGGGGUGU (mixed, 2'-OMe C,U and G20; other A,G deoxy; 3'-idT) [ARC1441]	2.7 nM
ACAGGCAAGUAAUUGGGGAGUGCGGGCGGGGUGU (mixed, 2'-OMe C,U and G33; other A,G deoxy; 3'-idT) [ARC1450]	2.6 nM

Binder	Kd
B11	2.7 nM
B12	4 nM
ACAGGCAAGUAAUUGGGGAGUGCGGGCGGGGUGU (mixed, 2'-OMe C,U and A3; other A,G deoxy; 3'-idT) [ARC1428]	1.8 nM
ACAGGCAAGUAAUUGGGGAGUGCGGGCGGGGUGU (mixed, 2'-OMe C,U and G16; other A,G deoxy; 3'-idT) [ARC1437]	3.9 nM
B13	4.4 nM
ACAGGCAAGUAAUUGGGGAGUGCGGGCGGGGUGU (mixed, 2'-OMe C,U and A8; other A,G deoxy; 3'-idT) [ARC1432]	3.8 nM
ACAGGCAAGUAAUUGGGGAGUGCGGGCGGGGUGU (mixed, 2'-OMe C,U and G17; other A,G deoxy; 3'-idT) [ARC1438]	6 nM
ACAGGCAAGUAAUUGGGGAGUGCGGGCGGGGUGU (mixed, 2'-OMe C,U and G26; other A,G deoxy; 3'-idT) [ARC1445]	2.8 nM
ACAGGCAAGUAAUUGGGGAGUGCGGGCGGGGUGU (mixed, 2'-OMe C,U and G4; other A,G deoxy; 3'-idT) [ARC1429]	29.5 nM
ACAGGCAAGUAAUUGGGGAGUGCGGGCGGGGUGU (mixed, 2'-OMe C,U and G29; other A,G deoxy; 3'-idT) [ARC1447]	2.5 nM
ACAGGCAAGUAAUUGGGGAGUGCGGGCGGGGUGU (mixed, 2'-OMe C,U and A7,A8,G15; other A,G deoxy; 3'-idT) [ARC1452]	18.9 nM
B14	1.7 nM
ACAGGCAAGUAAUUGGGGAGUGCGGGCGGGGUGU (mixed, 2'-OMe C,U and G30; other A,G deoxy; 3'-idT) [ARC1448]	2.3 nM
B15	2.9 nM
B16	3.7 nM
B17	5.9 nM
ACAGGCAAGUAAUUGGGGAGUGCGGGCGGGGUGU (mixed, 2'-OMe C,U and A19; other A,G deoxy; 3'-idT) [ARC1440]	6.7 nM
ACAGGCAAGUAAUUGGGGAGUGCGGGCGGGGUGU (mixed, 2'-OMe C,U and A1,A3,G33; other A,G deoxy; 3'-idT) [ARC1451]	10.2 nM
ACAGGCAAGUAAUUGGGGAGUGCGGGCGGGGUGU (mixed, 2'-OMe C,U and G25; other A,G deoxy; 3'-idT) [ARC1444]	4.4 nM
ACAGGCAAGUAAUUGGGGAGUGCGGGCGGGGUGU (mixed, 2'-OMe C,U and A1,G33; other A,G deoxy; 3'-idT) [ARC1539]	6.6 nM
ACAGGCAAGUAAUUGGGGAGUGCGGGCGGGGUGU (mixed, 2'-OMe C,U and G18,A19,G20,G22; other A,G deoxy; 3'-idT) [ARC1541]	3.9 nM
B18	23.5 nM
